B1: His8-MBP:AtHb1 (Arabidopsis thaliana class 1 non-symbiotic hemoglobin / phytoglobin, before tag cleavage) (natural protein, UniProt O24520 1-160, looked up)
chain: MESEGKIVFTEEQEALVVKSWSVMKKNSAELGLKLFIKIFEIAPTTKKMFSFLRDSPIPAEQNPKLKPHAMSVFVMCCESAVQLRKTGKVTVRETTLKRLGASHSKYGVVDEHFEVAKYALLETIKEAVPEMWSPEMKVAWGQAYDHLVAAIKAEMNLSN
notes: AtHb1, class 1 non-symbiotic hemoglobin of Arabidopsis thaliana; Heme protein; Expressed from pVP16 (Gateway) with an N-terminal 8xHis:MBP double tag and a TEV site; also called His8-MBP-tagged AtHb1; 8xHis:MBP:Hb1; not shown: His8, N-terminal, kept; MBP, N-terminal, kept
B2: AtHb1 (Arabidopsis thaliana class 1 non-symbiotic hemoglobin / phytoglobin, His8-MBP removed) (natural protein, UniProt O24520 1-160, looked up)
chain: MESEGKIVFTEEQEALVVKSWSVMKKNSAELGLKLFIKIFEIAPTTKKMFSFLRDSPIPAEQNPKLKPHAMSVFVMCCESAVQLRKTGKVTVRETTLKRLGASHSKYGVVDEHFEVAKYALLETIKEAVPEMWSPEMKVAWGQAYDHLVAAIKAEMNLSN
notes: AtHb1, class 1 non-symbiotic hemoglobin of Arabidopsis thaliana; Heme protein; The gene primer encodes ENLYFQ directly before the first Met, the adapter primer ENLYFQG before Met; also called class 1 nsHb; source: TEV cleavage, HisTrap removal of the tag, size exclusion and/or anion exchange; not shown: His8, N-terminal, cleaved; MBP, N-terminal, cleaved
B3: His8-MBP:AtHb3 (Arabidopsis thaliana class 3 non-symbiotic, truncated hemoglobin / phytoglobin, before tag cleavage) (natural protein, UniProt Q67XG0 1-175, looked up)
chain: MQSLQDKASVLSGVDQAEAFAIDESNLFDKLGLQTFINLSTNFYTRVYDDEEEWFQSIFSNSNKEDAIQNQYEFFVQRMGGPPLYSQRKGHPALIGRHRPFPVTHQAAERWLEHMQNALDDSVDIDQDSKIKMMKFFRHTAFFLVAGNELKNQNEKPKHKPQCACKHAANKPAEE
notes: AtHb3, class 3 non-symbiotic (truncated, 2-on-2) hemoglobin of Arabidopsis thaliana; Heme protein; Expressed from pVP16 (Gateway) with an N-terminal 8xHis:MBP double tag and a TEV site; carboxy form oxidised to the ferric form on the column; also called His8-MBP-tagged AtHb3; 8xHis:MBP:Hb3; not shown: His8, N-terminal, kept; MBP, N-terminal, kept
B4: AtHb3 (Arabidopsis thaliana class 3 non-symbiotic, truncated hemoglobin / phytoglobin, His8-MBP removed) (natural protein, UniProt Q67XG0 1-175, looked up)
chain: MQSLQDKASVLSGVDQAEAFAIDESNLFDKLGLQTFINLSTNFYTRVYDDEEEWFQSIFSNSNKEDAIQNQYEFFVQRMGGPPLYSQRKGHPALIGRHRPFPVTHQAAERWLEHMQNALDDSVDIDQDSKIKMMKFFRHTAFFLVAGNELKNQNEKPKHKPQCACKHAANKPAEE
notes: AtHb3, class 3 non-symbiotic (truncated, 2-on-2) hemoglobin of Arabidopsis thaliana; Heme protein; The gene primer encodes ENLYFQ directly before the first Met, the adapter primer ENLYFQG before Met; also called class 3 nsHb; source: TEV cleavage, HisTrap removal of the tag, anion exchange; not shown: His8, N-terminal, cleaved; MBP, N-terminal, cleaved

Target: the molecule itself
Assay: SEC; analytical size exclusion chromatography of the purified proteins, before and after His8-MBP removal; apparent native size in solution

Stoichiometry N, 2:
B1
B2
B3
B4

From article PMC6135765, “Redox control and autoxidation of class 1, 2 and 3 phytoglobins from Arabidopsis thaliana” (Scientific Reports, 2018)
